Among the data in patent US20180071366A1 are hAMYR3 EC50 [nM] (cAMP formation, 1321N1 cells expressing hAMYR3) and hCT-R EC50 [nM] (cAMP formation, 1321N1 cells expressing hCT-R) values, retold here.

Numbered stars: 1 amine (or outer) side, 2 acyl side, 3 side chain; on linkers, the order of the positions; unused ones are H or OH. Bridge positions count the residues as written; N and C are the ends. Square brackets hold non-standard residues; d marks the D form. * marks the point of attachment. C20 diacid = O=C(O)CCCCCCCCCCCCCCCCCCC(=O)*; γGlu = O=C(O)[C@H](CCC(=O)[*:2])N[*:1]; Hyp = O=C(O)[C@@H]1C[C@@H](O)CN1; NMeI = CC[C@H](C)[C@H](NC)C(=O)O; Aad = N[C@@H](CCCC(=O)O)C(=O)O; Orn = NCCC[C@H](N)C(=O)O; Sar = CNCC(=O)O

For experiment [1], the target named is recombinant human amylin 3 receptor (hAMYR3) (human), P30988. Put plainly: cell-based or functional assay.
Sequence of recombinant human amylin 3 receptor (hAMYR3) (human), P30988 (P30988 25-474, chain 1 of 2): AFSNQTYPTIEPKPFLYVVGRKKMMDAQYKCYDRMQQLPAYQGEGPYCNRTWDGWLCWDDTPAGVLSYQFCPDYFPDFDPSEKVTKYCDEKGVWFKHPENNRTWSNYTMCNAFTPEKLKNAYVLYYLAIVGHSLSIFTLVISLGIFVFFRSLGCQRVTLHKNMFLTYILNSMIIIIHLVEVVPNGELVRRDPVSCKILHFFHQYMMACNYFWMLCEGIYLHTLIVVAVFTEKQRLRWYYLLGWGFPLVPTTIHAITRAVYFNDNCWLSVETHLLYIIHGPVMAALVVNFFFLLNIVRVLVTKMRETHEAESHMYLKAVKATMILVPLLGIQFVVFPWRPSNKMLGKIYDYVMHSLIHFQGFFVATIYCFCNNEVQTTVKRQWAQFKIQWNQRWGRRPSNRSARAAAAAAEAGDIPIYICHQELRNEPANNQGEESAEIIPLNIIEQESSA
Sequence of recombinant human amylin 3 receptor (hAMYR3) (human), P30988 (O60896 24-148, chain 2 of 2, further chain): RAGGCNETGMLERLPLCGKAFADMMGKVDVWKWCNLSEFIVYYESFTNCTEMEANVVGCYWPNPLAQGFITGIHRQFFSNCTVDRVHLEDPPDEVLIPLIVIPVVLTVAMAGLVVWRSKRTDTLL
Experiment [2] deals with recombinant human calcitonin receptor (hCT-R) (human), P30988. Put plainly: cell-based or functional assay.
Sequence of recombinant human calcitonin receptor (hCT-R) (human), P30988 (P30988 25-474): as the sequence (P30988 25-474, chain 1 of 2) above

B1: Compound 34 (peptide)
peptide: {C20 diacid-γGlu}-RDGTATKATERLA[Aad]FLQRSSF[Sar]A[NMeI]PSSTEVGSNT[Hyp]-NH2
modifications: lactam 2-7
SMILES: CC[C@H](C)[C@@H](C(=O)N1CCC[C@H]1C(=O)N[C@@H](CO)C(=O)N[C@@H](CO)C(=O)N[C@H](C(=O)N[C@@H](CCC(=O)O)C(=O)N[C@H](C(=O)NCC(=O)N[C@@H](CO)C(=O)N[C@@H](CC(N)=O)C(=O)N[C@H](C(=O)N1C[C@H](O)C[C@H]1C(N)=O)[C@@H](C)O)C(C)C)[C@@H](C)O)N(C)C(=O)[C@H](C)NC(=O)CN(C)C(=O)[C@H](Cc1ccccc1)NC(=O)[C@H](CO)NC(=O)[C@H](CO)NC(=O)[C@H](CCCNC(=N)N)NC(=O)[C@H](CCC(N)=O)NC(=O)[C@H](CC(C)C)NC(=O)[C@H](Cc1ccccc1)NC(=O)[C@H](CCCC(=O)O)NC(=O)[C@H](C)NC(=O)[C@H](CC(C)C)NC(=O)[C@H](CCCNC(=N)N)NC(=O)[C@H](CCC(=O)O)NC(=O)[C@@H](NC(=O)[C@H](C)NC(=O)[C@@H]1CCCCNC(=O)C[C@H](NC(=O)[C@H](CCCNC(=N)N)NC(=O)CC[C@H](NC(=O)CCCCCCCCCCCCCCCCCCC(=O)O)C(=O)O)C(=O)NCC(=O)N[C@@H]([C@@H](C)O)C(=O)N[C@@H](C)C(=O)N[C@@H]([C@@H](C)O)C(=O)N1)[C@@H](C)O
Take B1: the hAMYR3 EC50 [nM] (cAMP formation, 1321N1 cells expressing hAMYR3) in experiment [1] was determined as 0.063 nM. In addition, the hCT-R EC50 [nM] (cAMP formation, 1321N1 cells expressing hCT-R) in experiment [2] amounted to 0.206 nM.
The corresponding values for {C20 diacid-γGlu}-RDGTATKATERLA[Aad]FLQRSSF[Sar]A[NMeI]LSSTEVGSNT[Hyp]-NH2 (lactam 2-7) [Compound 35] are 0.028 nM and 0.066 nM.

B2: Compound 4 (peptide)
peptide: {C20 diacid-γGlu-γGlu}-RDGTAT[Orn]ATERLAHFLQRSSF[Sar]A[NMeI]LSSTEVGSNT[Hyp]-NH2
modifications: lactam 2-7
SMILES: CC[C@H](C)[C@@H](C(=O)N[C@@H](CC(C)C)C(=O)N[C@@H](CO)C(=O)N[C@@H](CO)C(=O)N[C@H](C(=O)N[C@@H](CCC(=O)O)C(=O)N[C@H](C(=O)NCC(=O)N[C@@H](CO)C(=O)N[C@@H](CC(N)=O)C(=O)N[C@H](C(=O)N1C[C@H](O)C[C@H]1C(N)=O)[C@@H](C)O)C(C)C)[C@@H](C)O)N(C)C(=O)[C@H](C)NC(=O)CN(C)C(=O)[C@H](Cc1ccccc1)NC(=O)[C@H](CO)NC(=O)[C@H](CO)NC(=O)[C@H](CCCNC(=N)N)NC(=O)[C@H](CCC(N)=O)NC(=O)[C@H](CC(C)C)NC(=O)[C@H](Cc1ccccc1)NC(=O)[C@H](Cc1c[nH]cn1)NC(=O)[C@H](C)NC(=O)[C@H](CC(C)C)NC(=O)[C@H](CCCNC(=N)N)NC(=O)[C@H](CCC(=O)O)NC(=O)[C@@H](NC(=O)[C@H](C)NC(=O)[C@@H]1CCCNC(=O)C[C@H](NC(=O)[C@H](CCCNC(=N)N)NC(=O)CC[C@H](NC(=O)CC[C@H](NC(=O)CCCCCCCCCCCCCCCCCCC(=O)O)C(=O)O)C(=O)O)C(=O)NCC(=O)N[C@@H]([C@@H](C)O)C(=O)N[C@@H](C)C(=O)N[C@@H]([C@@H](C)O)C(=O)N1)[C@@H](C)O
As for B2, the hAMYR3 EC50 [nM] (cAMP formation, 1321N1 cells expressing hAMYR3) in experiment [1] was 0.092 nM. Moreover, the hCT-R EC50 [nM] (cAMP formation, 1321N1 cells expressing hCT-R) in experiment [2] worked out at 0.16 nM.

B3: Compound 36 (peptide)
peptide: {C20 diacid-γGlu}-RDGTATKATERLA[Aad]FLQRSSF[Sar]A[NMeI]LSSTETGSNT[Hyp]-NH2
modifications: lactam 2-7
SMILES: CC[C@H](C)[C@@H](C(=O)N[C@@H](CC(C)C)C(=O)N[C@@H](CO)C(=O)N[C@@H](CO)C(=O)N[C@H](C(=O)N[C@@H](CCC(=O)O)C(=O)N[C@H](C(=O)NCC(=O)N[C@@H](CO)C(=O)N[C@@H](CC(N)=O)C(=O)N[C@H](C(=O)N1C[C@H](O)C[C@H]1C(N)=O)[C@@H](C)O)[C@@H](C)O)[C@@H](C)O)N(C)C(=O)[C@H](C)NC(=O)CN(C)C(=O)[C@H](Cc1ccccc1)NC(=O)[C@H](CO)NC(=O)[C@H](CO)NC(=O)[C@H](CCCNC(=N)N)NC(=O)[C@H](CCC(N)=O)NC(=O)[C@H](CC(C)C)NC(=O)[C@H](Cc1ccccc1)NC(=O)[C@H](CCCC(=O)O)NC(=O)[C@H](C)NC(=O)[C@H](CC(C)C)NC(=O)[C@H](CCCNC(=N)N)NC(=O)[C@H](CCC(=O)O)NC(=O)[C@@H](NC(=O)[C@H](C)NC(=O)[C@@H]1CCCCNC(=O)C[C@H](NC(=O)[C@H](CCCNC(=N)N)NC(=O)CC[C@H](NC(=O)CCCCCCCCCCCCCCCCCCC(=O)O)C(=O)O)C(=O)NCC(=O)N[C@@H]([C@@H](C)O)C(=O)N[C@@H](C)C(=O)N[C@@H]([C@@H](C)O)C(=O)N1)[C@@H](C)O
B3: the hAMYR3 EC50 [nM] (cAMP formation, 1321N1 cells expressing hAMYR3) in experiment [1] came to 0.007 nM. For the same molecule, the hCT-R EC50 [nM] (cAMP formation, 1321N1 cells expressing hCT-R) in experiment [2] was found to be 0.026 nM.

B4: Compound 33 (peptide)
peptide: {C20 diacid-γGlu}-RDGTATKATERLA[Aad]FLQRANF[Sar]A[NMeI]LSSTEVGSNT[Hyp]-NH2
modifications: lactam 2-7
SMILES: CC[C@H](C)[C@@H](C(=O)N[C@@H](CC(C)C)C(=O)N[C@@H](CO)C(=O)N[C@@H](CO)C(=O)N[C@H](C(=O)N[C@@H](CCC(=O)O)C(=O)N[C@H](C(=O)NCC(=O)N[C@@H](CO)C(=O)N[C@@H](CC(N)=O)C(=O)N[C@H](C(=O)N1C[C@H](O)C[C@H]1C(N)=O)[C@@H](C)O)C(C)C)[C@@H](C)O)N(C)C(=O)[C@H](C)NC(=O)CN(C)C(=O)[C@H](Cc1ccccc1)NC(=O)[C@H](CC(N)=O)NC(=O)[C@H](C)NC(=O)[C@H](CCCNC(=N)N)NC(=O)[C@H](CCC(N)=O)NC(=O)[C@H](CC(C)C)NC(=O)[C@H](Cc1ccccc1)NC(=O)[C@H](CCCC(=O)O)NC(=O)[C@H](C)NC(=O)[C@H](CC(C)C)NC(=O)[C@H](CCCNC(=N)N)NC(=O)[C@H](CCC(=O)O)NC(=O)[C@@H](NC(=O)[C@H](C)NC(=O)[C@@H]1CCCCNC(=O)C[C@H](NC(=O)[C@H](CCCNC(=N)N)NC(=O)CC[C@H](NC(=O)CCCCCCCCCCCCCCCCCCC(=O)O)C(=O)O)C(=O)NCC(=O)N[C@@H]([C@@H](C)O)C(=O)N[C@@H](C)C(=O)N[C@@H]([C@@H](C)O)C(=O)N1)[C@@H](C)O
On to B4, for which the hAMYR3 EC50 [nM] (cAMP formation, 1321N1 cells expressing hAMYR3) in experiment [1] was found to be 0.009 nM. Also, in experiment [2], the hCT-R EC50 [nM] (cAMP formation, 1321N1 cells expressing hCT-R) was 0.019 nM.

B5: Compound 32 (peptide)
peptide: {C20 diacid-γGlu}-RDGTATKATERLA[Aad]FLQRGGF[Sar]A[NMeI]LSSTEVGSNT[Hyp]-NH2
modifications: lactam 2-7
SMILES: CC[C@H](C)[C@@H](C(=O)N[C@@H](CC(C)C)C(=O)N[C@@H](CO)C(=O)N[C@@H](CO)C(=O)N[C@H](C(=O)N[C@@H](CCC(=O)O)C(=O)N[C@H](C(=O)NCC(=O)N[C@@H](CO)C(=O)N[C@@H](CC(N)=O)C(=O)N[C@H](C(=O)N1C[C@H](O)C[C@H]1C(N)=O)[C@@H](C)O)C(C)C)[C@@H](C)O)N(C)C(=O)[C@H](C)NC(=O)CN(C)C(=O)[C@H](Cc1ccccc1)NC(=O)CNC(=O)CNC(=O)[C@H](CCCNC(=N)N)NC(=O)[C@H](CCC(N)=O)NC(=O)[C@H](CC(C)C)NC(=O)[C@H](Cc1ccccc1)NC(=O)[C@H](CCCC(=O)O)NC(=O)[C@H](C)NC(=O)[C@H](CC(C)C)NC(=O)[C@H](CCCNC(=N)N)NC(=O)[C@H](CCC(=O)O)NC(=O)[C@@H](NC(=O)[C@H](C)NC(=O)[C@@H]1CCCCNC(=O)C[C@H](NC(=O)[C@H](CCCNC(=N)N)NC(=O)CC[C@H](NC(=O)CCCCCCCCCCCCCCCCCCC(=O)O)C(=O)O)C(=O)NCC(=O)N[C@@H]([C@@H](C)O)C(=O)N[C@@H](C)C(=O)N[C@@H]([C@@H](C)O)C(=O)N1)[C@@H](C)O
As for B5, the hAMYR3 EC50 [nM] (cAMP formation, 1321N1 cells expressing hAMYR3) in experiment [1] turned out to be 0.005 nM. The hCT-R EC50 [nM] (cAMP formation, 1321N1 cells expressing hCT-R) in experiment [2] turned out to be 0.006 nM.

B6: Compound 31 (peptide)
peptide: {C20 diacid-γGlu}-RDGTATKATERLA[Aad]FLQRAAF[Sar]A[NMeI]LSSTEVGSNT[Hyp]-NH2
modifications: lactam 2-7
SMILES: CC[C@H](C)[C@@H](C(=O)N[C@@H](CC(C)C)C(=O)N[C@@H](CO)C(=O)N[C@@H](CO)C(=O)N[C@H](C(=O)N[C@@H](CCC(=O)O)C(=O)N[C@H](C(=O)NCC(=O)N[C@@H](CO)C(=O)N[C@@H](CC(N)=O)C(=O)N[C@H](C(=O)N1C[C@H](O)C[C@H]1C(N)=O)[C@@H](C)O)C(C)C)[C@@H](C)O)N(C)C(=O)[C@H](C)NC(=O)CN(C)C(=O)[C@H](Cc1ccccc1)NC(=O)[C@H](C)NC(=O)[C@H](C)NC(=O)[C@H](CCCNC(=N)N)NC(=O)[C@H](CCC(N)=O)NC(=O)[C@H](CC(C)C)NC(=O)[C@H](Cc1ccccc1)NC(=O)[C@H](CCCC(=O)O)NC(=O)[C@H](C)NC(=O)[C@H](CC(C)C)NC(=O)[C@H](CCCNC(=N)N)NC(=O)[C@H](CCC(=O)O)NC(=O)[C@@H](NC(=O)[C@H](C)NC(=O)[C@@H]1CCCCNC(=O)C[C@H](NC(=O)[C@H](CCCNC(=N)N)NC(=O)CC[C@H](NC(=O)CCCCCCCCCCCCCCCCCCC(=O)O)C(=O)O)C(=O)NCC(=O)N[C@@H]([C@@H](C)O)C(=O)N[C@@H](C)C(=O)N[C@@H]([C@@H](C)O)C(=O)N1)[C@@H](C)O
Take B6: the hAMYR3 EC50 [nM] (cAMP formation, 1321N1 cells expressing hAMYR3) in experiment [1] came to 0.066 nM. For the same molecule, in experiment [2], the hCT-R EC50 [nM] (cAMP formation, 1321N1 cells expressing hCT-R) was determined as 0.227 nM.
